Reference: patent publication US12018084B2, “Anti-CXCR2 antibodies and uses thereof” (Cephalon LLC, priority 2018, dated 2024)
Substitutions are numbered along the chain they refer to. Names may count otherwise. Each block holds one molecule with its values, some of them ahead of it.

Key:
Murine CXCR2 = biological target: T1, Murine CXCR2 (Mus musculus, UniProt P35343); assay: cELISA of hybridoma supernatants on cells transfected with murine CXCR2; format: binding; details: hybridoma supernatant; fluorescence units relative to positive control (100%)
T1 construct: expressed in transfected cells
T1 sequence (P35343 1-359): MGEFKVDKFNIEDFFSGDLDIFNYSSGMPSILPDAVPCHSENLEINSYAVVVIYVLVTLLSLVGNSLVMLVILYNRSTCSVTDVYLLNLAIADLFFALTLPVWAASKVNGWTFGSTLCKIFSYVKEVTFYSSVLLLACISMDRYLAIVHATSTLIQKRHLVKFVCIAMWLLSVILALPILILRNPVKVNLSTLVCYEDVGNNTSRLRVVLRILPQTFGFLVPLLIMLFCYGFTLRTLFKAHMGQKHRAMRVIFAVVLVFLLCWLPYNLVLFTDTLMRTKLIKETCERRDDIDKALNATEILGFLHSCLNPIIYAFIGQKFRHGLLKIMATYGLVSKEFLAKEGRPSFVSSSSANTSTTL

Human CXCR2 [1] = biological target: T2, Human CXCR2 (Homo sapiens, UniProt P25025); assay: cELISA of hybridoma supernatants on cells transfected with human CXCR2; format: binding; parameters: host or cells: Expi293F cells, vector pTT5; details: hybridoma supernatant; fluorescence units relative to positive control (100%)
T2 sequence (P25025 1-360): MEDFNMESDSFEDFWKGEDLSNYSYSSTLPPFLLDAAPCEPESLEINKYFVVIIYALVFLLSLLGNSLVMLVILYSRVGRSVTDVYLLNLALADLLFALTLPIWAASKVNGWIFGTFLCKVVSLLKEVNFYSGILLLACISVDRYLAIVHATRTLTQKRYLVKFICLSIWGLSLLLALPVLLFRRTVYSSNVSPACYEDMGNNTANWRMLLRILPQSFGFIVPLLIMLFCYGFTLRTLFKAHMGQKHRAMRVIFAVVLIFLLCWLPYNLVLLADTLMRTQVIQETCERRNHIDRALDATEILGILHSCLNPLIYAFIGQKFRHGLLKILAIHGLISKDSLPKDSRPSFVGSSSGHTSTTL
Experimental: To generate hybridomas which produced monoclonal antibodies to human CXCR2, splenocytes and/or lymph node cells from animals with the highest anti-CXCR2 titres were isolated and fused to mouse myeloma cells (ATCC, CRL-1580). Cells were plated at approximately 1×10^5 cells/mL in flat bottom microtiter plates, followed by a two week incubation in selective medium (10% FCS and 1×HAT (Sigma)). Hybridomas were expanded by serial passage through four media changes in 96-well plates (96-well stages 1 to 4), then, where required, expanded into T25 and T75 flasks. […] Bound antibodies were detected using a goat anti-rat IgG-HRP (Southern Biotech, #3030-05) secondary antibody.
A panel of hybridomas was generated using lymph nodes and spleen cells from the transgenic rats engineered to express human variable region sequences. A cellular ELISA (cELISA) was used to detect human CXCR2 binding activity in supernatants taken during the expansion process for the hybridomas (Table 5). Hybridomas that retained expression of antibodies that bound CXCR2 after several passages were selected for DNA sequencing.

Human CXCR2 [2] = biological target: T2, Human CXCR2; assay: Flow cytometry binding assay, Expi293F cells transiently transfected with human CXCR2; parameters: host or cells: Expi293F cells, vector pTT5; details: for CXCR2 binding activity versus parental BKO-4A8: combinatorial variants with light chain c; for Fold change in binding relative to BKO-4A8: point variant chain co-expressed with parental other chain
Experimental: For each 10 mL transfection, lipid-DNA complexes were prepared by diluting 10 μg of plasmid DNA in Opti-MEM™ I Reduced Serum Medium (Cat. no. 31985-062) to a total volume of 1.0 mL. 54 μL of ExpiFectamine™ 293 Reagent was diluted in Opti-MEM™ I medium to a total volume of 1.0 mL. Transfections were carried out according to manufacturer's instructions. The cells were incubated in a 37° C. incubator with a humidified atmosphere of 8% CO2 in air on an orbital shaker rotating at 200 rpm. Approximately 18-24 hours post-transfection, the cell viability was evaluated and transfected cells harvested for use.
Harvested cells were resuspended in FACS buffer (1×PBS+0.5% (w/v) bovine serum albumin (BSA)+2 mM EDTA pH 7.2). Approximately 2×10^5 cells were added per well in a 96-well round-bottomed plate. Cells were pelleted by centrifugation at 400 g for 5 mins at 4° C. and supernatants discarded. 25 μL of each test antibody or control antibody was added to the cells and incubated for 30 minutes at 4° C. Cells were washed twice in 100 μL FACS buffer followed by centrifugation at 400 g for 5 mins at 4° C.
For detection, 50 μL of secondary antibody (Table 2) was added to relevant samples. Commercially available antibodies that bound to transfected CXCR family members were used as positive controls to ensure that the cells were expressing the receptors. Cells were washed twice in 200 μL of FACS buffer followed by centrifugation at 400 g for 5 mins at 4° C. Before sample acquisition, cells were resuspended in 100 μL of FACS buffer. Samples were acquired using the high throughput sampler on a FACSCanto™ II cytometer (Beckton-Dickinson).
Binding of BKO-4A8 and variants thereof was detected by incubation of fluorochrome-conjugate anti-human IgG light chain lambda antibody. The binding activity of antibodies tested, quantified as mean fluorescent intensity, was independent of the antibody Fc region as illustrated in FIG. 9.

Human CXCR2 [3] = biological target: T2, Human CXCR2; assay: Tango CXCR2-bla U2OS cell-based β-arrestin recruitment assay; parameters: The beta-arrestin/TEV protease fusion and the beta-lactamase reporter are separate parts of the cell line; details: human agonist potency
Excerpt: Cells were thawed, propagated, cultured and frozen according to the manufacturer's directions.
Preparation of Tango™ CXCR2-bla U2OS cells for use in cell-based assays: The manufacturer's protocol was altered to make use of 96-well plates instead of 384-well plates. Briefly, dividing cells were harvested one day prior to use. Cells were harvested and resuspended in assay medium (100% FreeStyle™ Expression Medium; Life Technologies; Cat #12338-018) at a viable cell density of 312,500 cells/mL. 128 μL of cell suspension was added per well in 96-well black-walled, clear bottom tissue culture-treated plates. Cells were incubated for 16-20 hrs at 37° C. in an atmosphere of 5% CO2 prior to use in assays.
Tango™ assay procedure: Assays were set up and run as described in the manufacturer's protocol. For antagonist assays, agonists were used at concentrations in the EC50-EC80 range. Assays were read using a FlexStation® 3 (Molecular Devices) fluorescence plate reader configured with the parameters given in Table 4. The blue/green emission ratio for each well was calculated by dividing the blue emission values by the green emission values. All inhibition curves were fitted using a four-parameter dose-response using GraphPad Prism™ (Version 7.01).
The Human CXCR2 Tango™ cell line was used to assess the ability of antibody BKO-4A8-101c to inhibit β-arrestin recruitment to agonist-activated CXCR2. All human ELR+ chemokine CXCR2 ligands were tested in antagonist dose response assays using calculated EC50 values of agonist.
The commercially available reporter cell line Tango™ CXCR2-bla U2OS (ThermoFisher Scientific) was used to assess the ability of the anti-CXCR2 antibodies to inhibit β-arrestin recruitment to agonist-activated CXCR2. Agonists were provided at their assay EC50 concentration for antagonist assays.

Human CXCR2 [4] = biological target: T2, Human CXCR2; assay: Calcium flux assay, HTS002C-CHEMISCREEN human CXCR2 calcium-optimized cell line; format: cell-based; details: human agonist potency
Experimental: One of the signaling pathways downstream of CXCR2 activation that has a role in cell chemotaxis is characterized by calcium mobilization (flux). The ability of BKO-4A8-101c to inhibit human CXCR2 ligand-induced calcium flux was tested in the commercially available HTS002C-CHEMISCREEN™ human CXCR2 chemokine receptor calcium-optimized cell line.
The Fluo-4 NW calcium assay kit (Life Technologies) was used according to manufacturer's protocol for in-cell measurement of calcium mobilization, which was read using a FLIPR Tetra high-throughput cellular screening system (Molecular Devices). The peak response minus the basal response from each well was used to determine inhibition dose response curves fitting a four-parameter logistic equation and IC50 values.

B2: 102c: VH SEQ ID NO: 162, VL SEQ ID NO: 110 (antibody, V domains shown)
VH: EVQLLESGGGLVQPGGSLRLSCAASGFTFSSSTQSWVRQPPGKGLEWVSAISGRGRSTYYADSVKGRFTISRDNSKNTLYLQMNSLRAEDTAVYYCAIQEGYWGQGILVTVSS
VL: QSALTQPPSASGSPGQSVTISCIGTSSDVGGYNYVSWYQQHPGKAPKLMIYEVSKRPSGVPDRFSGSKSGNTASLTVSGLQAEDEADYYCSSYAGSNNFGVFGGGTKLTVL
modifications: 4A8 VH Variant 102 M34Q_A40P_N56S_R75K_M96E; 4A8 VL variant c D41G_N52S_N94S
CXCR2 binding activity versus parental BKO-4A8 (Human CXCR2 [2]): reduced

B3: V97A: BKO-4A8 point variant, VL SEQ ID NO: 96 (antibody, V domains shown)
VL: B2 VL with G43D, S54N, S96N, V101A
modifications: VH not cited; 4A8 VL V97A
Fold change in binding relative to BKO-4A8 (Human CXCR2 [2]): 1.7

B4: 106c: VH SEQ ID NO: 166, VL SEQ ID NO: 110 (antibody, V domains shown)
VH: B2 VH with R54S, R56G
VL: B2 VL
modifications: 4A8 VH Variant 106 M34Q_A40P_R53S_R55G_N56S_ R75K_M96E; 4A8 VL variant c D41G_N52S_N94S
CXCR2 binding activity versus parental BKO-4A8 (Human CXCR2 [2]): reduced

B5: BKO-5G11: VH SEQ ID NO: 23, VL SEQ ID NO: 24 (antibody, V domains shown)
VH: EVQLLESGGGLVQPGGSLRLSCAVSGFTFSNYAMTWVRQAPGKGLEWVSAISGRGSRTYYADSVKGRFTISRDTSKNTLYLQMNSLRAEDTAVYYCAKMDYWGQGTLVTVSS
VL: B2 VL with I23T, Y51F
modifications: BKO_5G11_VH; BKO_5G11_VL
Murine CXCR2 % Positive (Murine CXCR2): 22%
Human CXCR2 % Positive (Human CXCR2 [1]): 101%

B6: Y91A: BKO-4A8 point variant, VL SEQ ID NO: 83 (antibody, V domains shown)
VL: B2 VL with G43D, S54N, Y93A, S96N
modifications: VH not cited; 4A8 VL Y91A
Fold change in binding relative to BKO-4A8 (Human CXCR2 [2]): 1.7

B10: BKO-1A1: VH SEQ ID NO: 1, VL SEQ ID NO: 2 (antibody, V domains shown)
VH: QLQLQESGPGLVKPSETLSLTCTVSGGSIRTSSYYWGWIRQPPGKGLEYIGSIYYSGTTYYNPSLKSRVTMSVDTSKNQFSLKMSSVTAADSAVYYCARHGRVREVPPFDYWGQGTLVTVSS
VL: SSELTQDPAVSVALGQTVRITCQGDSLRYYYASWYQQKPGQAPVLVIYDENSRPSGIPDRFSGSSSGNTASLSITGTQAEDEADYYCNSRDTSGNHWAFGGGTKLTVL
modifications: BKO_1A1_VH; BKO_1A1_VL
Murine CXCR2 % Positive (Murine CXCR2): 6%
Human CXCR2 % Positive (Human CXCR2 [1]): 38%

Now from value to molecule:

Murine CXCR2 % Positive (Murine CXCR2): 4%
Human CXCR2 % Positive (Human CXCR2 [1]): 73%
B1: BKO-7C11: VH SEQ ID NO: 31, VL SEQ ID NO: 32 (antibody, V domains shown)
VH: QVQLQQWGAGLLKPSETLSLTCAVYGGSFSGYYWSWIRQPPGKGLEWIGEINHSRNTNYNPSLKSRVTISVDTSKNQFSLKLSSVTAADTAVYYCARGEVRGVFTLYWYFDVWGRGTLVTVSS
VL: SSELTQGPAVSVALGQTVRITCQGNSLRFYYASWYQQRPGQAPILVIYDKNNRPSGIPDRFSGSSSGNTASLTITGAQAEDEADYYCNSRDSSGYYMIFGGGTKLTVL
modifications: BKO_7C11_H6_B06_VH; BKO_7C11_G01_VL

Murine CXCR2 % Positive (Murine CXCR2): 6%
Human CXCR2 % Positive (Human CXCR2 [1]): 95%
B7: BKO-8B6: VH SEQ ID NO: 37, VL SEQ ID NO: 38 (antibody, V domains shown)
VH: EVQLLESGGGLVQPGGSLRLSCAASGFTFSSNAMSWVRQAPGKGLEWVSAISNSGRSTYYADSVKGRFTISRDSSKNTLYLLMNSLRAEDSAVYYCAIKLGYWGQGSLVTVSS
VL: B2 VL with I23T, I50M, N97D, K107R
modifications: BKO_8B6_VH; BKO_8B6_VL

EC50 (Human CXCR2 [3]): 39.6 nM
EC50 (Human CXCR2 [4]): 7.14 nM
B8: CXCL7: human agonist chemokine, R&D Systems 393-NP (protein)
chain: AELRCMCIKTTSGIHPKNIQSLEVIGKGTHCNQVEVIATLKDGRKICLDPDAPRIKKIVQKKLAGDESAD

Murine CXCR2 % Positive (Murine CXCR2): 6%
Human CXCR2 % Positive (Human CXCR2 [1]): 124%
B9: BKO-8C4: VH SEQ ID NO: 39, VL SEQ ID NO: 40 (antibody, V domains shown)
VH: B10 VH with M84L, S92T
VL: B10 VL with S73R
modifications: BKO_8C4_VH; BKO_8C4_VL
